What was measured:
[1] = molecular target: HLA-DR (DRA1*01:01 / DRB1*11:04), soluble knob-into-hole Fc heterodimer (human); experiment: ELISA
[2] = molecular target: HLA-DR (DRA1*01:01 / DRB1*04:05), soluble knob-into-hole Fc heterodimer (human); experiment: ELISA

| Substance | fold decline of binding affinity compared to RBD WT [1] [fold] | fold decline of binding affinity compared to RBD WT [2] [fold] |
| --- | --- | --- |
| SARS-CoV-2 RBD peptide RBD447-461 of the Omicron BA.5 variant (from UniProt P0DTC2 447-461) | > 16 | > 16 |
| SARS-CoV-2 RBD peptide RBD447-461 of the BA.2.86 variant (from UniProt P0DTC2 447-461) | > 16 | > 16 |
